Measured values from patent US11045546 (CYTODYN, dated 2021).

Biological target: C-C chemokine receptor 5 (CCR5) (human, UniProt P51681 1-352)
Test: cell-based or functional assay

C-C chemokine receptor 5 (CCR5), sequence (P51681 whole entry): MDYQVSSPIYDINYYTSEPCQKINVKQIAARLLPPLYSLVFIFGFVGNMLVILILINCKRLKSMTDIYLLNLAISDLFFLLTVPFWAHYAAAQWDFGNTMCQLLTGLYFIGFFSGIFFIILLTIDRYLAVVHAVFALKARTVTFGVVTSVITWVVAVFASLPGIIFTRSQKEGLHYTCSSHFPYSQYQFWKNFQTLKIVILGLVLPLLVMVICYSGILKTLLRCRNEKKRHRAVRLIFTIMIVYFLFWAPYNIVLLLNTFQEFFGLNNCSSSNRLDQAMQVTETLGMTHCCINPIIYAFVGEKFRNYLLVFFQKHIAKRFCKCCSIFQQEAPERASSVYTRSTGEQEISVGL

B1: Leronlimab (PRO 140) (antibody, human IgG4, kappa, V domains shown)
VH: EVQLVESGGGLVKPGGSLRLSCAASGYTFSNYWIGWVRQAPGKGLEWIGDIYPGGNYIRNNEKFKDKTTLSADTSKNTAYLQMNSLKTEDTAVYYCGSSFGSNYVFAWFTYWGQGTLVTVSS
VL: DIVMTQSPLSLPVTPGEPASISCRSSQRLLSSYGHTYLHWYLQKPGQSPQLLIYEVSNRFSGVPDRFSGSGSGTDFTLKISRVEAEDVGVYYCSQSTHVPLTFGQGTKVEIKR
- inhibition of MIP-1α-induced calcium mobilization, IC50: 21.2 µg/mL
- inhibition of MIP-1β-induced calcium mobilization, IC50: 39.6 µg/mL
- inhibition of RANTES (CCL5)-induced calcium mobilization, IC50: 59.1 µg/mL
